Values quoted from earlier work in publication PMC2794832 (Journal of nuclear medicine : official publication, Society …, 2008).

Tested on: tumors of HEK cells stably transfected to express only SSTR2
Conditions: mouse, in vivo

**Q.** Which “uptake of the radiopharmaceutical in tumors” value does the source give for “^111In-1,4,7,10-tetraazacyclododecane-1,4,7,10-tetraacetic acid-sst2-ANT [^111In-DOTA-sst2-ANT]” here?
**A.** high uptake
